Laboratory results published in patent publication US20130022605A1 (published 2013).

T1: human TNFR1 on HeLa cells (human, UniProt P19438 30-455)
T1 sequence (looked up): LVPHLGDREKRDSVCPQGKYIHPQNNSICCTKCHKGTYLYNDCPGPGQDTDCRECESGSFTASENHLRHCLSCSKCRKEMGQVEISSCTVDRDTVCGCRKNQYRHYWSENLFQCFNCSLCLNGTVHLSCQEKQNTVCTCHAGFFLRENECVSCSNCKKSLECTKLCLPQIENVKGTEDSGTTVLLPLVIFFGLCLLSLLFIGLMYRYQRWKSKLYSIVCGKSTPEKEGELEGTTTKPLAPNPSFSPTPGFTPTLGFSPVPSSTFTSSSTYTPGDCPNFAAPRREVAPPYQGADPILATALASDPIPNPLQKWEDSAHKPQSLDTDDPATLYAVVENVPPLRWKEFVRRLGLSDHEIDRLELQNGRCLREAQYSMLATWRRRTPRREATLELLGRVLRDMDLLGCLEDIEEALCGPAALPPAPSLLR

T2: TNF receptor 1 Fc fusion protein (R&D Systems) (human, UniProt P19438 30-211, limits assumed)
T2 construct: bought; also called recombinant TNF receptor 1 (p55); TNFR1-Fc; not shown: Fc part of the bought fusion protein; not described
T2 sequence: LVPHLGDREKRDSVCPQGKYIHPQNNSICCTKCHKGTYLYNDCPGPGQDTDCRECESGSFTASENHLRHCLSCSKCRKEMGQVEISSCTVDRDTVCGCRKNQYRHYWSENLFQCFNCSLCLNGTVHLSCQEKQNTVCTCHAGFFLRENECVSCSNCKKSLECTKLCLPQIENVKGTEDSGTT


Each binder was assayed against T1, human TNFR1 on HeLa cells (assay: cell-based or functional assay).

Binder | HeLa IL-8 Cell Assay, Activity (IC50) [nM]
TAR2h-12 (other) EVQLLESGGGLVQPGGSLRLSCAASGFTFVAYNMGWVRQAPGKGLEWVSFIDMYGAKTYYADSVKGRFTISRDNSKNTLYLQMNSLRAEDTAVYYCAKLCLMDCSGDIFDYWGQGTLVTVSS | 100
TAR2h-13 (other) EVQLLESGGGLVQPGGSLRLSCAASGFTFPADEMYWVRQAPGKGLEWVSSIGWPGGATYYADSVKGRFTISRDNSKNTLYLQMNSLRAEDTAVYYCAKYGRNFDYWGQGTLVTVSS | 300

Now from value to binder:

HeLa IL-8 Cell Assay, Activity (IC50) [nM] | Binder
800 | TAR2h-35 (other) EVQLLESGGGLVQPGGSLRLSCAASGFTFDAYNMFWVRQAPGKGLEWVSAISPSGRETYYADSVKGRFTISRDNSKNTLYLQMNSLRAEDTAVYYCAKRYPDFDYWGQGTLVTVSS
400 | TAR2h-18 (other) EVQLLESGGGLVQPGGSLRLSCAASGFTFADYNMTWVRQAPGKGLEWVSWIDQEGVFTYYADSVKGRFTISRDNSKNTLYLQMNSLRAEDTAVYYCAKDFSAAVMLRTSFDYWGQGTLVTVSS

What follows are binders tested against T2, TNF receptor 1 Fc fusion protein (R&D …) (assay: receptor binding assay).

Binder | IC50 [nM]
TAR2h-15 (other, anti-human TNFR1 dAb) EVRLLESGGGLVQPGGSLRLSCAASGFTFGKYTMTWVRQAPGKGLEWVSHISDDGNSTYYADSVKGRFTISRDNSKNTLYLQMNSLRAEDTAVYYCAKVPILAPRNLFDYWGQGTLVTVSS | 5
TAR2h-10-1 (other, anti-human TNFR1 dAb) EVQLLESGGGLVQPGGSLRLSCAASGFTFEWYWMGWVRQAPGKGLEWVSAISGSGGSTYYADSVKGRFTISRDNSKNTLYLQMNNLRAEDTAVYYCAKVKLGGGPNFDYRGQGTLVTVSS | 10
TAR2h-10-3 (other, anti-human TNFR1 dAb) EVQLLESGGGLVQPGGSLRLTCAASGFTFEWYWMGWVRQAPGKGLEWVSAISGSGGSTYYADSVKGRFTISRDNSKNTLYLQMNSLRAEDTAVYYCAKVKLGGGPNFDYWGQGTLVTVSS | 11
TAR2h-10-4 (other, anti-human TNFR1 dAb) EVQLLESGGGLVQPGGSLRLSCAASGFTFEWYWMGWIRQAPGKGLEWVSAISGSGGSTYYADSVKGRFTISRDNSKNTLYLQMNSLRAEDTAVYYCAKVKLGGGPNFDYWGQGTLVTVSS | 8
TAR2h-17 (other, anti-human TNFR1 dAb) EVQLLESGGGLVQPGGSLRLSCAASGFTFGGYQMGWVRQAPGKGLEWVSFIDFTGAHTYYADSVKGRFTISRDNSKNTLYLQMNSLRAEDTAVYYCAKLSDDLTLPERFPFDYWGQGTLVTVSS | 100

The next lines start with the values.

IC50 [nM] | Binder
80 | TAR2h-51 (other, anti-human TNFR1 dAb) EVQLLESGGGLVQPGGSLRLSCAASGFTFATYNMSWVRQAPGKGLEWVSAIDAGGMHTYYADSVKGRFTISRDNSKNTLYLQMNSLRAEDTAVYYCAKGTEPFDYWGQGTLVTVSS
8 | TAR2h-47 (other, anti-human TNFR1 dAb) EVQLLESGGGLVQPGGSLRLSCAASGFTFPVYNMAWVRQAPGKGLEWVSFIAGNGQQTYYADSVKGRFTISRDNSKNTLYLQMNSLRAEDTAVYYCAKFASKVSPMSLTDFDYWGQGTLVTVSS
200 | TAR2h-22 (other, anti-human TNFR1 dAb) EVQLLESGGGLVQPGGSLRLSCAASGFTFGEYNMAWVRQAPGKGQEWVSFISTGGHVTYYADSVKGRFTISRDNSKNTLYLQMNSLRAEDTAVYYCAKFSVRFRSSIFDYWGQGTLVTVSS
300 | TAR2h-34 (other, anti-human TNFR1 dAb) EVQLLESGGGLVQPGGSLRLSCAASGFTFPEYGMAWVRQAPGKGLEWVSTISHGGEHTYYADSVKGRFTISRDNSKNTLYLQMNSLRAEDTAVYYCAQHPVSHPKFDYWGQGTLVTVSS
